From patent publication US20140134132A1

target: organic anion transporting polypeptide 1B1 (UniProt Q9Y6L6); assay: cell-based or functional assay
Sequence (Q9Y6L6 whole entry): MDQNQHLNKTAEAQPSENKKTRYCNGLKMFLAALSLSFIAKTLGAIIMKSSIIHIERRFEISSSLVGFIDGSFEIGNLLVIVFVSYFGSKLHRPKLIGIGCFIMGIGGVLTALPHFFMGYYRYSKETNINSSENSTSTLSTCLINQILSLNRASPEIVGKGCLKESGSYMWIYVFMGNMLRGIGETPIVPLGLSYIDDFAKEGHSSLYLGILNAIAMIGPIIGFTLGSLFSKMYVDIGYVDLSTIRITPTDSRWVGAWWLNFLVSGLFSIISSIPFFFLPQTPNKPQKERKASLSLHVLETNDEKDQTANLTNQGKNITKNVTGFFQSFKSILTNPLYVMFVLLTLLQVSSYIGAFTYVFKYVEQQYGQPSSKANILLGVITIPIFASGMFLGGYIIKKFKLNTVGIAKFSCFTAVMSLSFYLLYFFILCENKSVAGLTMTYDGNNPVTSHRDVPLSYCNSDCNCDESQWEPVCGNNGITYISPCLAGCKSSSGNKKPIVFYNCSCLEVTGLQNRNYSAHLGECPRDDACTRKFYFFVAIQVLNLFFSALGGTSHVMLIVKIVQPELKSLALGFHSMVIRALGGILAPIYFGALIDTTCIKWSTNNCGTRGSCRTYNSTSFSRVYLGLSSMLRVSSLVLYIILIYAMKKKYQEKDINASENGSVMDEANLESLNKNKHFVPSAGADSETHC

Row | Substance | OATP1B13 IC50 [nM]
1 | 3-[(R)-3-methyl-2-(methylamino)butanoyl]-4-[(2S,3S)-4-methoxy-3-methyl-2-(methylamino)butanoyl]-cyclosporin (peptide) | 2000
2 | 3-[(R)-5-hydroxy-2-(methylamino)pentanoyl]-4-[(2S,3S)-3-methyl-2-(methylamino)-4-(methylsulfonyl)butanoyl]-cyclosporin (peptide) | 2700
3 | 3-[D-Ala]-4-[(2S,3R)-3,6-dimethyl-2-(methylamino)-6-((4-methylpiperazine-1-carbonyl)oxy)heptanoyl]-cyclosporin (peptide) | 4700
4 | 3-[D-Ala]-4-[(2S,3R)-3-methoxy-2-(methylamino)-4-morpholinobutanoyl]-cyclosporin (peptide) | 900
5 | 3-[D-Ala]-4-[(2S,3R)-3-methyl-2-(methylamino)-4-(1,4-dioxa-8-azaspiro[4.5]decan-8-yl)butanoyl]-cyclosporin (peptide) | 2100
6 | 3-[D-Ala]-4-[(2S,3R)-3-methyl-2-(methylamino)-4-(1,4-oxazepan-4-yl)butanoyl]-cyclosporin (peptide) | 1700
7 | 3-[D-Ala]-4-[(2S,3R)-3-methyl-2-(methylamino)-4-(3-(trifluoromethyl)-5,6-dihydro-[1,2,4]triazolo[4,3-a]pyrazin-7(8H)-yl)butanoyl]-cyclosporin (peptide) | 1000
8 | 3-[D-Ala]-4-[(2S,3R)-3-methyl-2-(methylamino)-4-(3-oxopiperazin-1-yl)butanoyl]-cyclosporin (peptide) | 2100
9 | 3-[D-Ala]-4-[(2S,3R)-3-methyl-2-(methylamino)-4-(4-(methylsulfonyl)piperidin-1-yl)butanoyl]-cyclosporin (peptide) | 1800
10 | 3-[D-Ala]-4-[(2S,3R)-3-methyl-2-(methylamino)-5-((S)-2-methylpiperidin-1-yl)pentanoyl]-cyclosporin (peptide) | 1700
11 | 3-[D-Ala]-4-[(2S,3R)-3-methyl-2-(methylamino)-5-morpholinopentanoyl]-cyclosporin (peptide) | 3900
12 | 3-[D-Ala]-4-[(2S,3R)-3-methyl-2-(methylamino)-6-(4-methylpiperazin-1-yl)-6-oxohexanoyl]-cyclosporin (peptide) | 5400
13 | 3-[D-Ala]-4-[(2S,3R)-3-methyl-4-(methyl(pyridin-3-ylmethyl)amino)-2-(methylamino)butanoyl]-cyclosporin (peptide) | 1000
14 | 3-[D-Ala]-4-[(2S,3R)-3-methyl-6-((methyl(1-methylpiperidin-4-yl)carbamoyl)oxy)-2-(methylamino)hexanoyl]-cyclosporin (peptide) | 3700
15 | 3-[D-Ala]-4-[(2S,3R)-4-(3-methoxyazetidin-1-yl)-3-methyl-2-(methylamino)butanoyl]-cyclosporin (peptide) | 4200
16 | 3-[D-Ala]-4-[(2S,3R)-4-(4-acetylpiperazin-1-yl)-3-methyl-2-(methylamino)butanoyl]-cyclosporin (peptide) | 2300
17 | 3-[D-Ala]-4-[(2S,3R)-4-(4-cyanopiperidin-1-yl)-3-methyl-2-(methylamino)butanoyl]-cyclosporin (peptide) | 1900
18 | 3-[D-Ala]-4-[(2S,3R)-4-(8-oxa-3-azabicyclo[3.2.1]octan-3-yl)-3-methyl-2-(methylamino)butanoyl]-cyclosporin (peptide) | 1700
19 | 3-[D-Ala]-4-[(2S,3R)-4-((2-(dimethylamino)-2-oxoethyl)(methyl)amino)-3-methyl-2-(methylamino)butanoyl]-cyclosporin (peptide) | 2700
20 | 3-[D-Ala]-4-[(2S,3R)-4-((2-methoxyethyl)(methyl)amino)-3-methyl-2-(methylamino)butanoyl]-cyclosporin (peptide) | 1900
21 | 3-[D-Ala]-4-[(2S,3R)-4-((2S,5S)-2,5-dimethylmorpholino)-3-methyl-2-(methylamino)butanoyl]-cyclosporin (peptide) | 2600
22 | 3-[D-Ala]-4-[(2S,3R)-4-((4-ethylpiperazine-1-carbonyl)oxy)-3-methyl-2-(methylamino)butanoyl]-cyclosporin (peptide) | 2200
23 | 3-[D-Ala]-4-[(2S,3R)-4-cyano-3-methyl-2-(methylamino)butanoyl]-cyclosporin (peptide) | 900
24 | 3-[D-Ala]-4-[(2S,3R)-5-(3-methoxyazetidin-1-yl)-3-methyl-2-(methylamino)pentanoyl]-cyclosporin (peptide) | 1400
25 | 3-[D-Ala]-4-[(2S,3R)-5-(4-(2-methoxyethyl)piperazin-1-yl)-3-methyl-2-(methylamino)pentanoyl]-cyclosporin (peptide) | 9100

Other lines, results leading:

Row | OATP1B13 IC50 [nM] | Substance
26 | 3300 | 1-dihydro-3-[D-Ala]-4[(2S,3S)-2-Amino-4-[4-(2-methoxy-ethyl)-piperazin-1-yl]-3-methyl-butanoyl]-cyclosporin (peptide)
27 | 2100 | 3-[(R)-2-(methylamino)butanoic acid]-4-[(2S,3S)-4-methoxy-3-methyl-2-(methylamino)butanoyl]-cyclosporin (peptide)
28 | 3400 | 3-[D-Ala]-4-[(2S,3R)-3-methyl-2-(methylamino)-4-(2-oxa-6-azaspiro[3.3]heptan-6-yl)butanoyl]-cyclosporin (peptide)
29 | 2000 | 3-[D-Ala]-4-[(2S,3R)-3-methyl-2-(methylamino)-4-(2-oxa-6-azaspiro[3.4]octan-6-yl)butanoyl]-cyclosporin (peptide)
30 | 7900 | 3-[D-Ala]-4-[(2S,3R)-3-methyl-2-(methylamino)-4-(4-methylpiperazin-1-yl)butanoyl]-cyclosporin (peptide)
31 | 2800 | 3-[D-Ala]-4-[(2S,3R)-3-methyl-2-(methylamino)-5-((S)-3-oxotetrahydro-1H-oxazolo[3,4-a]pyrazin-7(3H)-yl)pentanoyl]-cyclosporin (peptide)
32 | 2300 | 3-[D-Ala]-4-[(2S,3R)-3-methyl-2-(methylamino)-5-(piperidin-1-yl)pentanoyl]-cyclosporin (peptide)
33 | 2900 | 3-[D-Ala]-4-[(2S,3R)-3-methyl-2-(methylamino)-6-((4-methylpiperazine-1-carbonyl)oxy)hexanoyl]-cyclosporin (peptide)
34 | 7800 | 3-[D-Ala]-4-[(2S,3R)-3-methyl-2-(methylamino)-6-(((1-methylpiperidin-4-yl)carbamoyl)oxy)hexanoyl]-cyclosporin (peptide)
35 | 4800 | 3-[D-Ala]-4-[(2S,3R)-3-methyl-2-(methylamino)-6-morpholino-6-oxohexanoyl]-cyclosporin (peptide)
36 | 1400 | 3-[D-Ala]-4-[(2S,3R)-4-(3,3-difluoropyrrolidin-1-yl)-3-methyl-2-(methylamino)butanoyl]-cyclosporin (peptide)
37 | 2100 | 3-[D-Ala]-4-[(2S,3R)-4-(4-(ethoxycarbonyl)piperazin-1-yl)-3-methyl-2-(methylamino)butanoyl]-cyclosporin (peptide)
38 | 2400 | 3-[D-Ala]-4-[(2S,3R)-5-(4-cyanopiperidin-1-yl)-3-methyl-2-(methylamino)pentanoyl]-cyclosporin (peptide)
